For the test, the target named is EZH2 subunit of purified human PRC2 (human) (UniProt Q15910).
EZH2 subunit of purified human PRC2 (human), sequence (Q15910 whole entry): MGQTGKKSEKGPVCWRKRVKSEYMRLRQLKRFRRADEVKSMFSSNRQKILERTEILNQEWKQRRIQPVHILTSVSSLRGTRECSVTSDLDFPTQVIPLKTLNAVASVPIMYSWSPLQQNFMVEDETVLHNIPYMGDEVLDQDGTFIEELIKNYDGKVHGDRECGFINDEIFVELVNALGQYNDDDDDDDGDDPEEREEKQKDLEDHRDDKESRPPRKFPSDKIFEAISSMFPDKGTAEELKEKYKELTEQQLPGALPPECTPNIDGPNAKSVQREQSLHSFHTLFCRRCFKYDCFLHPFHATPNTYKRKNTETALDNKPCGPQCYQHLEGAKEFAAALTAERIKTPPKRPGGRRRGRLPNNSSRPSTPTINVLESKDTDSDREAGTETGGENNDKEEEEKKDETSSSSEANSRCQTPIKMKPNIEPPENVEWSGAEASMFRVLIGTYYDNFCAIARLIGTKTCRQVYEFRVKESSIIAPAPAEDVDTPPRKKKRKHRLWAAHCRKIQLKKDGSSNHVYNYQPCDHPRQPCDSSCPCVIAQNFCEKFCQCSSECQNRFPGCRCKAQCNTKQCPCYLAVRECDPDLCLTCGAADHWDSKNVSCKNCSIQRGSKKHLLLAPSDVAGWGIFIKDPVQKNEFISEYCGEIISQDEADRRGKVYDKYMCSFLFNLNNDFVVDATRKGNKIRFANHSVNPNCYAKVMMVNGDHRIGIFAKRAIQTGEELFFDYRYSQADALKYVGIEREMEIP

Take “H3 peptide (18 to 37) containing K27Ile (from UniProt P84243 19-38)”: the IC50 of inhibition of PRC2 methyltransferase activity in vitro, peptide titrated was determined as 8.9 µM.
